From the supplement of paper PMC6755084

B1: F1*; the commonest letter at each place (parent)
chain: GAGACCGCAACTGAAAAGTTGTTATCACTTGTCGTAAGACACTTTGGATGGGTTGAAGTTCTGCACGTAGAAGCAAAAGGC

Variants of: B1
Assay: fraction ligated after 30 min (ligated reads / total reads); higher = more ligase activity
Details: with F1*sub RNA substrate (template-directed ligation), 42 °C
Method: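 Chip-synthesised pool of F1* ligase ribozyme variants (all single and double substitutions, single, double and triple deletions in the catalytic core and GAA bulge, plus designed variants) was transcribed with T7 and reacted as a pool with excess substrate F1*sub for 30 min at 42 C in 50 mM EPPS pH 8.5, 25 mM MgCl2. Ligated and unligated bands were separated by PAGE, barcoded by RT and deep sequenced; fraction ligated = ligated reads / total reads per variant, relative activity = FL / FL of wild type (0.826). Sequences are the DNA template of the ribozyme.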

Variant	fraction ligated
A24T T43G	0.708
A24T T43A	0.678
A24T G46C	0.313
A24T G46A	0.553
A24T G46T	0.2
T25C A41T	0.82
T25C A41G	0.757
T25C A41C	0.517
T25G T49C	0.527
T25G T49A	0.723
T25G T49G	0.779
A24T G55T	0.18
A24T G55C	0.107
A24T G55A	0.532
T25C A39G	0.786
T25C A39T	0.766
T25C A39C	0.741
T25C T32A	0.745
T25C T32G	0.707
T25C T32C	0.762
T25C T44C	0.765
T25C T44G	0.0249
T25C T44A	0.788
T25A G50T	0.536

Variant	fraction ligated
T25A G50C	0.267
T25A G50A	0.225
T25G A27G	0.434
T25G A27C	0.705
T25G A27T	0.706
T25C T29A	0.753
T25C T29G	0.783
T25C T29C	0.781
T25A A48C	0.752
T25A A48T	0.822
T25A A48G	0.459
T25C G55A	0.784
T25C G55T	0.174
T25C G55C	0.424
A24T G50A	0.265
A24T G50C	0.295
A24T G50T	0.535
T25C G34A	0.799
T25C G34T	0.786
T25C G34C	0.795
C26A A41C	0.21
C26A A41G	0.761
C26A A41T	0.768
T25G T35G	0.804

Variant	fraction ligated
T25G T35A	0.787
T25G T35C	0.785
T25C A56T	0.107
T25C A56C	0.0931
T25C A56G	0.0517
T25C A48C	0.686
T25C A48T	0.815
T25C A48G	0.794
T25A G31T	0.0308
T25A G31A	0.0494
T25A G31C	0.034
T25A A56T	0.0445
T25A A56C	0.0125
T25A A56G	0.0269
T25G A57G	0.703
T25G A57C	0.556
T25G A57T	0.563
T25A T43A	0.463
T25A T43C	0.286
T25A T43G	0.624
C26A A36G	0.781
C26A A36T	0.823
C26A A36C	0.79
T25C T49C	0.757

Variant	fraction ligated
T25C T49A	0.777
T25C T49G	0.777
A24T C28G	0.373
A24T C28T	0.794
A24T C28A	0.492
T25A T44C	0.605
T25A T44G	0.117
T25A T44A	0.762
T25A T29G	0.691
T25A T29A	0.582
T25A T29C	0.187
T25G T43C	0.409
T25G T43A	0.684
T25G T43G	0.515
T25G T30A	0.674
T25G T30C	0.372
T25G T30G	0.776
T25G A56G	0.0638
T25G A56T	0.0925
T25G A56C	0.0423
T25A A37C	0.744
T25A A37T	0.776
T25A A37G	0.772
T25A T32G	0.13

Variant	fraction ligated
T25A T32C	0.145
T25A T32A	0.094
T25C	0.759
T25A	0.749
T25G	0.784
T25G G38A	0.676
T25G G38C	0.165
T25G G38T	0.659
T25C C42A	0.776
T25C C42T	0.804
T25C C42G	0.769
T25C T30A	0.75
T25C T30G	0.162
T25C T30C	0.751
T25G A41G	0.492
T25G A41T	0.662
T25G A41C	0.0915
T25G C26A	0.261
T25G C26T	0.191
T25G C26G	0.0648
T25A G38T	0.375
T25A G38A	0.353
T25A G38C	0.0835
A24T C33T	0.742

Variant	fraction ligated
A24T C33G	0.336
A24T C33A	0.214
T25G A37G	0.806
T25G A37C	0.757
T25G A37T	0.808
T25G G47C	0.242
T25G G47T	0.102
T25G G47A	0.363
A24T G31A	0.0391
A24T G31T	0.0661
A24T G31C	0.0424
T25A C28G	0.431
T25A C28T	0.714
T25A C28A	0.396
T25A C42T	0.785
T25A C42A	0.653
T25A C42G	0.553
T25G T45C	0.0153
T25G T45G	0.0229
T25G T45A	0.0602
T25C G46A	0.71
T25C G46T	0.396
T25C G46C	0.474
T25G G50T	0.436

Variant	fraction ligated
T25G G50A	0.103
T25G G50C	0.142
A24T T49C	0.694
A24T T49G	0.783
A24T T49A	0.8
T25C G47C	0.0468
T25C G47A	0.734
T25C G47T	0.208
T25C G38C	0.0674
T25C G38A	0.803
T25C G38T	0.747
T25C A57G	0.711
T25C A57T	0.682
T25C A57C	0.563
T25A G46T	0.0811
T25A G46C	0.137
T25A G46A	0.279
T25G T44A	0.737
T25G T44G	0.474
T25G T44C	0.741
A24T G34A	0.789
A24T G34T	0.76
A24T G34C	0.557
